US7183387 (Genentech, dated 2007)

T1: human FcγRIIB α subunit extracellular domain-6His-GST fusion (human, UniProt P31994 43-217)
T1 construct: not shown: glutathione S-transferase (GST)
T1 sequence: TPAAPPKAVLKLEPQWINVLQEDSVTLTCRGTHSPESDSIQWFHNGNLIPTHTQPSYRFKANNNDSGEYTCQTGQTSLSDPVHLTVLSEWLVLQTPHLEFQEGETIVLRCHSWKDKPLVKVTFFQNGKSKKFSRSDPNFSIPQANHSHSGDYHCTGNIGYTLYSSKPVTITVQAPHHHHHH

T2: human FcγRIIA-R131 α subunit extracellular domain-6His-GST fusion (human, UniProt P12318 34-217)
T2 construct: also called FcγRIIA-Arg131; not shown: glutathione S-transferase (GST)
T2 sequence: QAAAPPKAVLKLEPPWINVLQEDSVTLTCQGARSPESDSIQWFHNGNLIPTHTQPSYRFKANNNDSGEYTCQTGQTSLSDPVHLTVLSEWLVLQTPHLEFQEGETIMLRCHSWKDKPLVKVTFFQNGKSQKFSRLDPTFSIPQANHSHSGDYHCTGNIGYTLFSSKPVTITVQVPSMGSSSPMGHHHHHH


Legend:
Assay in all cases: ELISA, IgG:IgE hexamers on receptor-GST
[1] = biological target: T1, human FcγRIIB α subunit extracellular …
[2] = biological target: T3, human FcγRIIIA-F158 α subunit extracellular domain-6His-GST fusion (human, UniProt P08637 17-208)
T3 construct: also called FcγRIIIA-Phe158; not shown: glutathione S-transferase (GST)

[3] = biological target: T2, human FcγRIIA-R131 α subunit …

T3 sequence (P08637 other isoform, or with tags, fused parts or gaps, form in doubt): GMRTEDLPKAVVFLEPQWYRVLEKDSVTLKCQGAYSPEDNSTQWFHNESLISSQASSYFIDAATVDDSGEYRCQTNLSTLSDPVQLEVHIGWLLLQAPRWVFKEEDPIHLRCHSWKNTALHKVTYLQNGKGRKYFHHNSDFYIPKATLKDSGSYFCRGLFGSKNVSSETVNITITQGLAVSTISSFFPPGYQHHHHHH

Binder	ratio to native IgG1 [1]	ratio to native IgG1 [2]	ratio to native IgG1 [3]
E27 IgG1 variant E272(285)N (antibody, also called IG2 224) heavy: not shown light: DIQLTQSPSSLSASVGDRVTITCRASKPVDGEGDSYLNWYQQKPGKAPKLLIYAASYLESGVPSRFSGSGSGTDFTLTISSLQPEDFATYYCQQSHEDPYTFGQGTKVEIKRTVAAPSVFIFPPSDEQLKSGTASVVCLLNNFYPREAKVQWKVDNALQSGNSQESVTEQDSKDSTYSLSSTLTLSKADYEKHKVYACEVTHQGLSSPVTKSFNRGEC	0.23	0.5	0.43
E27 IgG1 variant E283(300)Q (antibody, also called IG2 226) heavy: not shown light: DIQLTQSPSSLSASVGDRVTITCRASKPVDGEGDSYLNWYQQKPGKAPKLLIYAASYLESGVPSRFSGSGSGTDFTLTISSLQPEDFATYYCQQSHEDPYTFGQGTKVEIKRTVAAPSVFIFPPSDEQLKSGTASVVCLLNNFYPREAKVQWKVDNALQSGNSQESVTEQDSKDSTYSLSSTLTLSKADYEKHKVYACEVTHQGLSSPVTKSFNRGEC	1.24	1.19	1.12
E27 IgG1 variant E283(300)N (antibody, also called IG2 228) heavy: not shown light: DIQLTQSPSSLSASVGDRVTITCRASKPVDGEGDSYLNWYQQKPGKAPKLLIYAASYLESGVPSRFSGSGSGTDFTLTISSLQPEDFATYYCQQSHEDPYTFGQGTKVEIKRTVAAPSVFIFPPSDEQLKSGTASVVCLLNNFYPREAKVQWKVDNALQSGNSQESVTEQDSKDSTYSLSSTLTLSKADYEKHKVYACEVTHQGLSSPVTKSFNRGEC	1.28	0.94	1.18
E27 IgG1 variant E333(352)Q (antibody) heavy: not shown light: DIQLTQSPSSLSASVGDRVTITCRASKPVDGEGDSYLNWYQQKPGKAPKLLIYAASYLESGVPSRFSGSGSGTDFTLTISSLQPEDFATYYCQQSHEDPYTFGQGTKVEIKRTVAAPSVFIFPPSDEQLKSGTASVVCLLNNFYPREAKVQWKVDNALQSGNSQESVTEQDSKDSTYSLSSTLTLSKADYEKHKVYACEVTHQGLSSPVTKSFNRGEC	0.64	1.05	0.7
E27 IgG1 variant E333(352)N (antibody) heavy: not shown light: DIQLTQSPSSLSASVGDRVTITCRASKPVDGEGDSYLNWYQQKPGKAPKLLIYAASYLESGVPSRFSGSGSGTDFTLTISSLQPEDFATYYCQQSHEDPYTFGQGTKVEIKRTVAAPSVFIFPPSDEQLKSGTASVVCLLNNFYPREAKVQWKVDNALQSGNSQESVTEQDSKDSTYSLSSTLTLSKADYEKHKVYACEVTHQGLSSPVTKSFNRGEC	0.52	0.56	0.59
E27 IgG1 variant E293(310)K (antibody) heavy: not shown light: DIQLTQSPSSLSASVGDRVTITCRASKPVDGEGDSYLNWYQQKPGKAPKLLIYAASYLESGVPSRFSGSGSGTDFTLTISSLQPEDFATYYCQQSHEDPYTFGQGTKVEIKRTVAAPSVFIFPPSDEQLKSGTASVVCLLNNFYPREAKVQWKVDNALQSGNSQESVTEQDSKDSTYSLSSTLTLSKADYEKHKVYACEVTHQGLSSPVTKSFNRGEC	1.31	0.72	1.13
E27 IgG1 variant H268(281)S (antibody, also called IG2 85) heavy: not shown light: DIQLTQSPSSLSASVGDRVTITCRASKPVDGEGDSYLNWYQQKPGKAPKLLIYAASYLESGVPSRFSGSGSGTDFTLTISSLQPEDFATYYCQQSHEDPYTFGQGTKVEIKRTVAAPSVFIFPPSDEQLKSGTASVVCLLNNFYPREAKVQWKVDNALQSGNSQESVTEQDSKDSTYSLSSTLTLSKADYEKHKVYACEVTHQGLSSPVTKSFNRGEC	1.38	0.81	1.35
E27 IgG1 variant E294(311)D (antibody, also called IG2 174) heavy: not shown light: DIQLTQSPSSLSASVGDRVTITCRASKPVDGEGDSYLNWYQQKPGKAPKLLIYAASYLESGVPSRFSGSGSGTDFTLTISSLQPEDFATYYCQQSHEDPYTFGQGTKVEIKRTVAAPSVFIFPPSDEQLKSGTASVVCLLNNFYPREAKVQWKVDNALQSGNSQESVTEQDSKDSTYSLSSTLTLSKADYEKHKVYACEVTHQGLSSPVTKSFNRGEC	0.26	0.14	0.37
E27 IgG1 variant E294(311)Q (antibody, also called IG2 173) heavy: not shown light: DIQLTQSPSSLSASVGDRVTITCRASKPVDGEGDSYLNWYQQKPGKAPKLLIYAASYLESGVPSRFSGSGSGTDFTLTISSLQPEDFATYYCQQSHEDPYTFGQGTKVEIKRTVAAPSVFIFPPSDEQLKSGTASVVCLLNNFYPREAKVQWKVDNALQSGNSQESVTEQDSKDSTYSLSSTLTLSKADYEKHKVYACEVTHQGLSSPVTKSFNRGEC	0.95	0.84	1.01
E27 IgG1 variant E333(352)R (antibody) heavy: not shown light: DIQLTQSPSSLSASVGDRVTITCRASKPVDGEGDSYLNWYQQKPGKAPKLLIYAASYLESGVPSRFSGSGSGTDFTLTISSLQPEDFATYYCQQSHEDPYTFGQGTKVEIKRTVAAPSVFIFPPSDEQLKSGTASVVCLLNNFYPREAKVQWKVDNALQSGNSQESVTEQDSKDSTYSLSSTLTLSKADYEKHKVYACEVTHQGLSSPVTKSFNRGEC	0.66	0.84	0.75
E27 IgG1 variant H268(281)N (antibody, also called IG2 84) heavy: not shown light: DIQLTQSPSSLSASVGDRVTITCRASKPVDGEGDSYLNWYQQKPGKAPKLLIYAASYLESGVPSRFSGSGSGTDFTLTISSLQPEDFATYYCQQSHEDPYTFGQGTKVEIKRTVAAPSVFIFPPSDEQLKSGTASVVCLLNNFYPREAKVQWKVDNALQSGNSQESVTEQDSKDSTYSLSSTLTLSKADYEKHKVYACEVTHQGLSSPVTKSFNRGEC	1.41	0.56	1.33
E27 IgG1 variant E333(352)G (antibody, also called IG2 178) heavy: not shown light: DIQLTQSPSSLSASVGDRVTITCRASKPVDGEGDSYLNWYQQKPGKAPKLLIYAASYLESGVPSRFSGSGSGTDFTLTISSLQPEDFATYYCQQSHEDPYTFGQGTKVEIKRTVAAPSVFIFPPSDEQLKSGTASVVCLLNNFYPREAKVQWKVDNALQSGNSQESVTEQDSKDSTYSLSSTLTLSKADYEKHKVYACEVTHQGLSSPVTKSFNRGEC	0.76	1.05	0.87
E27 IgG1 variant E283(300)D (antibody) heavy: not shown light: DIQLTQSPSSLSASVGDRVTITCRASKPVDGEGDSYLNWYQQKPGKAPKLLIYAASYLESGVPSRFSGSGSGTDFTLTISSLQPEDFATYYCQQSHEDPYTFGQGTKVEIKRTVAAPSVFIFPPSDEQLKSGTASVVCLLNNFYPREAKVQWKVDNALQSGNSQESVTEQDSKDSTYSLSSTLTLSKADYEKHKVYACEVTHQGLSSPVTKSFNRGEC	1.23	0.95	1.14
E27 IgG1 variant E293(310)D (antibody) heavy: not shown light: DIQLTQSPSSLSASVGDRVTITCRASKPVDGEGDSYLNWYQQKPGKAPKLLIYAASYLESGVPSRFSGSGSGTDFTLTISSLQPEDFATYYCQQSHEDPYTFGQGTKVEIKRTVAAPSVFIFPPSDEQLKSGTASVVCLLNNFYPREAKVQWKVDNALQSGNSQESVTEQDSKDSTYSLSSTLTLSKADYEKHKVYACEVTHQGLSSPVTKSFNRGEC	0.88	0.37	0.9
E27 IgG1 variant E283(300)S (antibody, also called IG2 227) heavy: not shown light: DIQLTQSPSSLSASVGDRVTITCRASKPVDGEGDSYLNWYQQKPGKAPKLLIYAASYLESGVPSRFSGSGSGTDFTLTISSLQPEDFATYYCQQSHEDPYTFGQGTKVEIKRTVAAPSVFIFPPSDEQLKSGTASVVCLLNNFYPREAKVQWKVDNALQSGNSQESVTEQDSKDSTYSLSSTLTLSKADYEKHKVYACEVTHQGLSSPVTKSFNRGEC	1.07	0.85	1.03
E27 IgG1 variant E293(310)Q (antibody) heavy: not shown light: DIQLTQSPSSLSASVGDRVTITCRASKPVDGEGDSYLNWYQQKPGKAPKLLIYAASYLESGVPSRFSGSGSGTDFTLTISSLQPEDFATYYCQQSHEDPYTFGQGTKVEIKRTVAAPSVFIFPPSDEQLKSGTASVVCLLNNFYPREAKVQWKVDNALQSGNSQESVTEQDSKDSTYSLSSTLTLSKADYEKHKVYACEVTHQGLSSPVTKSFNRGEC	0.77	0.99	0.85
E27 IgG1 variant E272(285)Q (antibody, also called IG2 223) heavy: not shown light: DIQLTQSPSSLSASVGDRVTITCRASKPVDGEGDSYLNWYQQKPGKAPKLLIYAASYLESGVPSRFSGSGSGTDFTLTISSLQPEDFATYYCQQSHEDPYTFGQGTKVEIKRTVAAPSVFIFPPSDEQLKSGTASVVCLLNNFYPREAKVQWKVDNALQSGNSQESVTEQDSKDSTYSLSSTLTLSKADYEKHKVYACEVTHQGLSSPVTKSFNRGEC	1.81	0.82	1.93
E27 IgG1 variant E318(337)K (antibody) heavy: not shown light: DIQLTQSPSSLSASVGDRVTITCRASKPVDGEGDSYLNWYQQKPGKAPKLLIYAASYLESGVPSRFSGSGSGTDFTLTISSLQPEDFATYYCQQSHEDPYTFGQGTKVEIKRTVAAPSVFIFPPSDEQLKSGTASVVCLLNNFYPREAKVQWKVDNALQSGNSQESVTEQDSKDSTYSLSSTLTLSKADYEKHKVYACEVTHQGLSSPVTKSFNRGEC	1.08	0.72	1.03
